Results as given in publication PMC3531806.

Target: T1, H1N1 WSN NP protein (nucleoprotein of influenza A/WSN/1933), wild type (influenza A virus A/WSN/1933 (H1N1)), P15682
T1 chain: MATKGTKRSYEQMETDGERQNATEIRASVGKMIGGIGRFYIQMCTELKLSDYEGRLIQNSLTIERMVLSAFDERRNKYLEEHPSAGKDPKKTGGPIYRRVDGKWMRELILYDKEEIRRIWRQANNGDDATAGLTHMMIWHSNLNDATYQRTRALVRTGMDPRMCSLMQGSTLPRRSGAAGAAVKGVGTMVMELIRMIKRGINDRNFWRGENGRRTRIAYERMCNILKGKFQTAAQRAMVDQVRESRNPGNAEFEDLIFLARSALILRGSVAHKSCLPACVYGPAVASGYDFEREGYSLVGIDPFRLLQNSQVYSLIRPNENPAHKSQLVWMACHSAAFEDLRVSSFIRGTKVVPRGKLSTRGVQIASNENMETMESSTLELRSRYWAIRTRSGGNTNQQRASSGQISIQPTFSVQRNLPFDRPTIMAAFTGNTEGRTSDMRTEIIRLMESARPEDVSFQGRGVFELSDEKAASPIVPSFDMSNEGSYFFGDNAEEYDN
Experiment: SEC
Details: remark: other sources report otherwise

B1: H1N1 WSN NP protein (nucleoprotein of influenza A/WSN/1933), wild type, P15682 1-498 (natural protein)
chain: MATKGTKRSYEQMETDGERQNATEIRASVGKMIGGIGRFYIQMCTELKLSDYEGRLIQNSLTIERMVLSAFDERRNKYLEEHPSAGKDPKKTGGPIYRRVDGKWMRELILYDKEEIRRIWRQANNGDDATAGLTHMMIWHSNLNDATYQRTRALVRTGMDPRMCSLMQGSTLPRRSGAAGAAVKGVGTMVMELIRMIKRGINDRNFWRGENGRRTRIAYERMCNILKGKFQTAAQRAMVDQVRESRNPGNAEFEDLIFLARSALILRGSVAHKSCLPACVYGPAVASGYDFEREGYSLVGIDPFRLLQNSQVYSLIRPNENPAHKSQLVWMACHSAAFEDLRVSSFIRGTKVVPRGKLSTRGVQIASNENMETMESSTLELRSRYWAIRTRSGGNTNQQRASSGQISIQPTFSVQRNLPFDRPTIMAAFTGNTEGRTSDMRTEIIRLMESARPEDVSFQGRGVFELSDEKAASPIVPSFDMSNEGSYFFGDNAEEYDN
What does the source list for B1?
half-life (t1/2) of the dissociation of trimers to monomers: 10 h; stoichiometry N: 3
